We go through seven molecules from patent publication EP4775226A1, “ANTIBODY DRUG CONJUGATE TARGETING GPC3 AND USE THEREOF” (priority 2023, dated 2025).

In assay [1] the target is T1, human GPC3 (Glypican-3) (human, UniProt P51654 25-580). The assay can be described thus: cell-based or functional assay.
Assay [2] addresses T1, human GPC3 (Glypican-3). Nature of the assay: cell-based or functional assay. The source holds these as a separate data set.
Assay [3] deals with T1, human GPC3 (Glypican-3). Nature of the assay: FACS on Huh7 liver cancer cells.
Assay [4] has as its target T1, human GPC3 (Glypican-3). Nature of the assay: cell-based or functional assay. This is another data set of the same source.
Assay [5] has as its target T1, human GPC3 (Glypican-3). Nature of the assay: FACS on HepG2 cells.
Assay [6] has as its target T1, human GPC3 (Glypican-3). Nature of the assay: FACS on GPC3-CHO-K1 cells (CHO-K1 overexpressing human GPC3).
Assay [7] concerns the target T1, human GPC3 (Glypican-3). Nature of the assay: FACS on Huh-7 cells.

T1 sequence (P51654 25-580, form in doubt): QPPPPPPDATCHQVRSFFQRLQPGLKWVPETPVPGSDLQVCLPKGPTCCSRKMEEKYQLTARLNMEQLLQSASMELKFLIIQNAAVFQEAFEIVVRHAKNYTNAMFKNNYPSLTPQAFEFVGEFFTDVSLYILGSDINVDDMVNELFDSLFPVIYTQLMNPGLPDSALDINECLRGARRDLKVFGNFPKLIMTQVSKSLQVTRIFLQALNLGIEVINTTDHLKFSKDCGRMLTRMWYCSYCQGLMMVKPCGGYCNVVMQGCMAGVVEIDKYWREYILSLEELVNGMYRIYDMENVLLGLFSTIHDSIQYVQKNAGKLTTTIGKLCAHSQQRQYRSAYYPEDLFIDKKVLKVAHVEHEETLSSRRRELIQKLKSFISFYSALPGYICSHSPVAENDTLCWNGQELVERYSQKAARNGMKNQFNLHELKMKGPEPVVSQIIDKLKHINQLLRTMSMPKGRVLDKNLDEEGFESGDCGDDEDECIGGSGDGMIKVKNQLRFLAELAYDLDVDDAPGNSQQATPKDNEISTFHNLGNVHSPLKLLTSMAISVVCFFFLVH

B1: Hu 52H5D3B8-8-mcc-AAQ-Exatecan (ADC-6) (antibody, human IgG1, kappa, DAR 4.0, V domains shown)
VH: EVQLVQSGAEVKKPGASVKVSCKASGYTFTDYEMHWVRQAPGQGLEWMGAIHPGSGGTAYNQKFKGRVTMTADKSISTAYMELSRLRSDDTAVYYCTRFYSYAYWGQGTLVTVSS
VL: DVVMTQTPLSLSVTPGQPASISCRSSQSLVHSNGNTYLQWYLQKPGQSPQLLIYKVSNRFSGVPDRFSGSGSGTDFTLKISRVEAEDVGVYFCSQSIHVPYTFGGGTKVEIKR
modifications: mcc-AAQ-Exatecan on cysteine thiols freed by partial reduction of interchain disulfide bonds; DAR 4.0 for the whole antibody; positions not given
As for B1, the “EC50 value of cell killing activity in Huh7 cells” value (“EC50 value” below) with human GPC3 (Glypican-3) [1] was 30.6 ng/mL.

B2: Hu 52H5D3B8-8-MCC-AAAAQ-Exatecan (ADC-9) (antibody, human IgG1, kappa, DAR 8.0, V domains shown)
VH: EVQLVQSGAEVKKPGASVKVSCKASGYTFTDYEMHWVRQAPGQGLEWMGAIHPGSGGTAYNQKFKGRVTMTADKSISTAYMELSRLRSDDTAVYYCTRFYSYAYWGQGTLVTVSS
VL: DVVMTQTPLSLSVTPGQPASISCRSSQSLVHSNGNTYLQWYLQKPGQSPQLLIYKVSNRFSGVPDRFSGSGSGTDFTLKISRVEAEDVGVYFCSQSIHVPYTFGGGTKVEIKR
modifications: mcc-Ala-Ala-Ala-Ala-Gln-Exatecan on cysteine thiols freed by reduction of interchain disulfide bonds; DAR 8.0 for the whole antibody; positions not given
For B2, the “EC50 value” value with human GPC3 (Glypican-3) [1] worked out at 4.78 ng/mL.

B3: Hu 52H5D3B8-7-mcc-AAQ-Exatecan (ADC-5) (antibody, human IgG1, kappa, DAR 7.9, V domains shown)
VH: EVQLVQSGAEVKKPGASVKVSCKASGYTFTDYEMHWVRQAPGQGLEWMGAIHPGSGGTAYNQKFKGRVTMTADKSISTAYMELSRLRSDDTAVYYCTRFYSYAYWGQGTLVTVSS
VL: DVVMTQTPLSLSVTPGQPASISCRSSQSLVHSNGNTYLQWYLQKPGQSPQLLIYKVSNRFSGVPDRFSGSGSGTDFTLKISRVEAEDVGVYYCSQSIHVPYTFGGGTKVEIKR
modifications: mcc-AAQ-Exatecan on cysteine thiols freed by reduction of interchain disulfide bonds; DAR 7.9 for the whole antibody; positions not given
In the case of B3, the “EC50 value” value in the assay with human GPC3 (Glypican-3) [1] was determined as 16.4 ng/mL.

B4: Hu 52H5D3B8-7-mcc-AAQ-Exatecan (ADC-7) (antibody, human IgG1, kappa, DAR 4.0, V domains shown)
VH: EVQLVQSGAEVKKPGASVKVSCKASGYTFTDYEMHWVRQAPGQGLEWMGAIHPGSGGTAYNQKFKGRVTMTADKSISTAYMELSRLRSDDTAVYYCTRFYSYAYWGQGTLVTVSS
VL: DVVMTQTPLSLSVTPGQPASISCRSSQSLVHSNGNTYLQWYLQKPGQSPQLLIYKVSNRFSGVPDRFSGSGSGTDFTLKISRVEAEDVGVYYCSQSIHVPYTFGGGTKVEIKR
modifications: mcc-AAQ-Exatecan on cysteine thiols freed by partial reduction of interchain disulfide bonds; DAR 4.0 for the whole antibody; positions not given
Consider B4, for which the “EC50 value” value with human GPC3 (Glypican-3) [1] is 27.9 ng/mL.

B5: Hu 52H5D3B8-8-mc-AAQ-Exatecan (ADC-3) (antibody, human IgG1, kappa, DAR 8.0, V domains shown)
VH: EVQLVQSGAEVKKPGASVKVSCKASGYTFTDYEMHWVRQAPGQGLEWMGAIHPGSGGTAYNQKFKGRVTMTADKSISTAYMELSRLRSDDTAVYYCTRFYSYAYWGQGTLVTVSS
VL: DVVMTQTPLSLSVTPGQPASISCRSSQSLVHSNGNTYLQWYLQKPGQSPQLLIYKVSNRFSGVPDRFSGSGSGTDFTLKISRVEAEDVGVYFCSQSIHVPYTFGGGTKVEIKR
modifications: mc-AAQ-Exatecan on cysteine thiols freed by reduction of interchain disulfide bonds; DAR 8.0 for the whole antibody; positions not given
notes: also called Hu 52H5D3B8-8-MC-AAQ-Exa (ADC-3)
For B5, the “EC50 value” value in the assay with human GPC3 (Glypican-3) [1] worked out at 11.9 ng/mL. In addition, in the assay with human GPC3 (Glypican-3) [2], the “Percentage reduction of GPC3 on cell surface (%), Huh7 cells, 0.5 h” value turned out to be 20%; the “Percentage reduction of GPC3 on cell surface (%), Huh7 cells, 1 h” value was 32.8%; the “Percentage reduction of GPC3 on cell surface (%), Huh7 cells, 2 h” value came to 50.1%. Moreover, in the assay with human GPC3 (Glypican-3) [3], the EC50 was 0.0633 µg/mL.

B6: Hu 52H5D3B8-8-MCC-AA-(3-cyano-L-alanine)-Exatecan (ADC-8) (antibody, human IgG1, kappa, DAR 8.0, V domains shown)
VH: EVQLVQSGAEVKKPGASVKVSCKASGYTFTDYEMHWVRQAPGQGLEWMGAIHPGSGGTAYNQKFKGRVTMTADKSISTAYMELSRLRSDDTAVYYCTRFYSYAYWGQGTLVTVSS
VL: DVVMTQTPLSLSVTPGQPASISCRSSQSLVHSNGNTYLQWYLQKPGQSPQLLIYKVSNRFSGVPDRFSGSGSGTDFTLKISRVEAEDVGVYFCSQSIHVPYTFGGGTKVEIKR
modifications: mcc-Ala-Ala-(3-cyano-L-alanine)-Exatecan on cysteine thiols freed by reduction of interchain disulfide bonds; DAR 8.0 for the whole antibody; positions not given
Turning to B6, the “EC50 value” value with human GPC3 (Glypican-3) [1] turned out to be 7.34 ng/mL.

B7: Hu 52H5D3B8-7 (antibody, human IgG1, kappa, V domains shown)
VH: EVQLVQSGAEVKKPGASVKVSCKASGYTFTDYEMHWVRQAPGQGLEWMGAIHPGSGGTAYNQKFKGRVTMTADKSISTAYMELSRLRSDDTAVYYCTRFYSYAYWGQGTLVTVSS
VL: DVVMTQTPLSLSVTPGQPASISCRSSQSLVHSNGNTYLQWYLQKPGQSPQLLIYKVSNRFSGVPDRFSGSGSGTDFTLKISRVEAEDVGVYYCSQSIHVPYTFGGGTKVEIKR
notes: also called humanized GPC3 antibody Hu 52H5D3B8-7
In the case of B7, the “Endocytosis on HepG2 cells, EC50 (pHAb dye-labelled secondary antibody)” value with human GPC3 (Glypican-3) [4] stood at 0.72 µg/mL. Besides, the “Endocytosis on HepG2 cells, Top” value with human GPC3 (Glypican-3) [4] turned out to be 58600. In addition, the EC50 stood at 0.405 nM with human GPC3 (Glypican-3) [5], 0.446 nM with human GPC3 (Glypican-3) [6] and 0.464 nM in the assay with human GPC3 (Glypican-3) [7].

For orientation: EC50 means the concentration needed to bring the measured effect to its halfway point. Higher therefore signals a less potent agent.
